Measurements: article PMC3618350 (G3: Genes|Genomes|Genetics, 2013)
Where two headings read alike, the source gives them in different places.

How the values were obtained:
[1] = target: T1, Rad30 (S. cerevisiae, UniProt Q04049 1-632); assay: two-hybrid
T1 sequence (looked up): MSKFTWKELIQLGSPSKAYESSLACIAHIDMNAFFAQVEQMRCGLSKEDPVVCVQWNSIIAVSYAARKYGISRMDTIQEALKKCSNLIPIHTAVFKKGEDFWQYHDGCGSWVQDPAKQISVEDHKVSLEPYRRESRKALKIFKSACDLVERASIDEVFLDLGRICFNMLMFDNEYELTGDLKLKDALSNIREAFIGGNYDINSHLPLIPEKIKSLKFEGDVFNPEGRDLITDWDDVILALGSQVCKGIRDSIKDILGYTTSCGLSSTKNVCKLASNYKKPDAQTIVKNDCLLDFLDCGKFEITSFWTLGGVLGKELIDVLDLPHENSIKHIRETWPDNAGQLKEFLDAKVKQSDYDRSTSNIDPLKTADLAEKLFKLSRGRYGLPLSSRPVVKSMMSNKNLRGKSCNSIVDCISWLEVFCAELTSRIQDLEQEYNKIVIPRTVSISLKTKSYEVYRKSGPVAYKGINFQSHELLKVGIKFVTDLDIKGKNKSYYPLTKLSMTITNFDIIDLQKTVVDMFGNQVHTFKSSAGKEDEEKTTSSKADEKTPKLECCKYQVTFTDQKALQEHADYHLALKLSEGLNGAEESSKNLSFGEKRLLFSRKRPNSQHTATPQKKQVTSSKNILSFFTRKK

[2] = target: T1, Rad30; assay: two-hybrid; remark: listed apart in the source

B1: Rev1 (enzyme, S. cerevisiae, UniProt P12689 1-985, looked up)
chain: MGEHGGLVDLLDSDLEYSINRETPDKNNCLSQQSVNDSHLTAKTGGLNARSFLSTLSDDSLIEYVNQLSQTNKNNSNPTAGTLRFTTKNISCDELHADLGGGEDSPIARSVIEIQESDSNGDDVKKNTVYTREAYFHEKAHGQTLQDQILKDQYKDQISSQSSKIFKNCVIYINGYTKPGRLQLHEMIVLHGGKFLHYLSSKKTVTHIVASNLPLKKRIEFANYKVVSPDWIVDSVKEARLLPWQNYSLTSKLDEQQKKLDNCKTVNSIPLPSETSLHKGSKCVGSALLPVEQQSPVNLNNLEAKRIVACDDPDFLTSYFAHSRLHHLSAWKANLKDKFLNENIHKYTKITDKDTYIIFHIDFDCFFATVAYLCRSSSFSACDFKRDPIVVCHGTKNSDIASCNYVARSYGIKNGMWVSQAEKMLPNGIKLISLPYTFEQFQLKSEAFYSTLKRLNIFNLILPISIDEAVCVRIIPDNIHNTNTLNARLCEEIRQEIFQGTNGCTVSIGCSDSLVLARLALKMAKPNGYNITFKSNLSEEFWSSFKLDDLPGVGHSTLSRLESTFDSPHSLNDLRKRYTLDALKASVGSKLGMKIHLALQGQDDEESLKILYDPKEVLQRKSLSIDINWGIRFKNITQVDLFIERGCQYLLEKLNEINKTTSQITLKLMRRCKDAPIEPPKYMGMGRCDSFSRSSRLGIPTNEFGIIATEMKSLYRTLGCPPMELRGLALQFNKLVDVGPDNNQLKLRLPFKTIVTNRAFEALPEDVKNDINNEFEKRNYKRKESGLTSNSLSSKKKGFAISRLEVNDLPSTMEEQFMNELPTQIRAEVRHDLRIQKKIQQTKLGNLQEKIKRREESLQNEKNHFMGQNSIFQPIKFQNLTRFKKICQLVKQWVAETLGDGGPHEKDVKLFVKYLIKLCDSNRVHLVLHLSNLISRELNLCAFLNQDHSGFQTWERILLNDIIPLLNRNKHTYQTVRKLDMDFEV
In the case of B1, the “fold change in reporter activity over the highest negative control” value [1] is reported as 3.07 fold and the “fold change in reporter activity over the highest negative control” value [2] is reported as 1.47 fold.
